The text below walks through data of paper PMC3825537.

In the test the target is monomeric photosystem II complex (His-tagged PsbE) (Nicotiana tabacum | Nicotiana tabacum (endogenous in leaves)) (UniProt P69384). Briefly: native gel or EMSA; BN-PAGE (3-12 % gradient, 205 V, 5 h, 4 °C) of PSII purified by protocol A.

Regarding “monomeric photosystem II complex (His-tagged PsbE) (from UniProt P69384 1-83; P69556 1-344)”, the stoichiometry N stood at 2.
